Our source for the IL-8 production by monocytes co-cultured for 5 days (ELISA) values is US20170000850A1.

The assay has as its target CD137 ligand (CD137L) (human) (UniProt P41273). Nature of the assay: cell-based or functional assay.
Sequence of UniProt P41273 (P41273 whole entry): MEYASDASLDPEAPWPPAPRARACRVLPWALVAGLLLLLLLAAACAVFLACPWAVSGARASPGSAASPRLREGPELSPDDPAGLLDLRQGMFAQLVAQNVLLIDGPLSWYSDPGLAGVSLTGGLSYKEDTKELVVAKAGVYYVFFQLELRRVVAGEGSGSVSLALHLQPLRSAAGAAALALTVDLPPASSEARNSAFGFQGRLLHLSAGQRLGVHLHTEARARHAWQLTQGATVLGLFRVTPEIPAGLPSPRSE

In turn, “RBC-CD137-Fc (biotinylated CD137-Fc conjugated through avidin to biotinylated red blood cells) (from UniProt Q07011 24-186) (Fc fusion)” registered an IL-8 production by monocytes co-cultured for 5 days (ELISA) of 2 fold.
